Changes are numbered by the printed parent chain. Where “and” joins values, the source holds several entries; their conditions need not be identical. Equal values may be shown once.
T1: Human CD138 His (human, UniProt P18827 23-254)
T1 construct: also called hCD138
T1 sequence: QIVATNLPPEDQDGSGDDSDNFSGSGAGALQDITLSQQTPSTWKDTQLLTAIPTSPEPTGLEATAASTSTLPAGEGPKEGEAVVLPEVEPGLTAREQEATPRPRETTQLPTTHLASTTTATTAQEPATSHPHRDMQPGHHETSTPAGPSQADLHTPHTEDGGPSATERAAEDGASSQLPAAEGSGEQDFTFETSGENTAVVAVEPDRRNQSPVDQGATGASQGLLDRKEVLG

T2: Human syndecan-1 (CD138) on the cell surface (human, UniProt P18827 23-310)
T2 construct: Endogenous on H929, KMS-11 and RT112/84 cells or transfected into Expi293 cells; also called human CD138; hCD138
T2 sequence: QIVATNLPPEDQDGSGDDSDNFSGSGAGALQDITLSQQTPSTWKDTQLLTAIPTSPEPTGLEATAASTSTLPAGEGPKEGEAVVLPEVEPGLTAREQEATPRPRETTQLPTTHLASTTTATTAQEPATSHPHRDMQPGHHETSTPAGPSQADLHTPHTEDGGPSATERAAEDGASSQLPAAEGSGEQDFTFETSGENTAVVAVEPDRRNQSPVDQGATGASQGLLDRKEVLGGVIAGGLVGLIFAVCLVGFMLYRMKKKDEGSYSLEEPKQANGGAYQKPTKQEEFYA

T3: Mouse CD138 His (mouse, UniProt P18828 23-255)
T3 construct: also called mCD138
T3 sequence: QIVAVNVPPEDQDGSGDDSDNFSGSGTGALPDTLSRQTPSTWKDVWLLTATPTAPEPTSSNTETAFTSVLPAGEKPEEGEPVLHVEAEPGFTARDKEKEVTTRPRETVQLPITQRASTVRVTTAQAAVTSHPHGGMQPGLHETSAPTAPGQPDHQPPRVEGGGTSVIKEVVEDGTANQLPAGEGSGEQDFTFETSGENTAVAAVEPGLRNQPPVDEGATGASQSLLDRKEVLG

T4: hCD138 peptide AGEGPKEGEAVVLP (human)
T4 construct: Portion of the linear CD138 peptide used for immunization; also the peptide in the crystal structure; also called syndecan-1 peptide
T4 peptide: AGEGPKEGEAVVLP

T5: hCD138 (ELISA of Table 29) (human, UniProt P18827 23-254, limits assumed)
T5 construct: also called human CD138
T5 sequence: T1 sequence

T6: Human CD138-Fc protein (human, UniProt P18827 23-254)
T6 construct: also called hCD138-Fc
T6 sequence: T1 sequence

T7: Mouse CD138 (ELISA binding assay, data not shown) (mouse, UniProt P18828 23-255, limits assumed)
T7 construct: Construct used in the ELISA is not described
T7 sequence: T3 sequence

B1: F13P30A7 (antibody, V domains shown)
VH: EVQLVESGGGLVQPKGSLKLSCAASGFTFNTYAMNWVRQAPGKGLEWIARIRSKSNNYATYYADSVKDRFTISRDDSQSLLYLQMNNLKTEDTAIFYCVTDYGYVYFDAWGAGTTVTVSS
VL: NIIMTQSPKSMAMSVGERVTLSCKASENVGNYVSWYQQKPEQSPKLLIYGASYRYTGVPDRFTGSGSGTDFTLTISSVQAEDLADYHCGQSSRYPLTFGAGTKLELKR
notes: Murine IgG purified from hybridoma supernatant
B2: F11AP11E5 (antibody, V domains shown)
VH: QVQLQQSGAELVKPGASVKLSCKASGYTFTNYYMYWVKQRPGQGLEWIGEINPGNGGTNFNEKFKNKATLTVDKSSSTAYMQLSSLTSEDSAVYYCTTRFAYWGQGTLVIVSA
VL: DVVMTQTPLSLSVTIGQPASISCKSGQSLLYSNGKTYLTWLQQRPGQAPKLLMYQVSKLDPGIPDRFSGSGSETDFTLKISRVEAEDLGVYYCLQNTYYPHTFGAGTKLELKR
notes: as for B1
B3: F12P7G11 (antibody, V domains shown)
VH: QVQLQQSGAELARPGASVKLSCKASGYTFSSHWMQWVKQRPGQGLEWIGAIYPGDGDTRFTQKFKGKATLTADKSSNTAYMQLSSLASEDSAVYYCARGIYYDRSRAMDYWGQGTSVTVSS
VL: QIVLSQSPAILSASPGEKVTMTCRASSSVNYMHWYQQKPGSSPKHWIYATSYLASGVPARFSGSGSGTSYSLTISRVEAEDAATYYCQQWSSDPLTFGAGTKLELKR
notes: as for B1
B4: F6 ckf-rep (antibody, V domains shown)
VH: QVQLVQSGAEVVKPGASVKLSCKASGYTFTSYYLYWVKKAPGQGLDWIGEIYPRSGGTNINEKFLSRVTLTADTSTSTAYLELSSLTSEDTAVYYCTRSLLYWGQGTTLTVSS
VL: DVVMTQSPLSLSVTLGQPASISCKSSQSLLASDGKTYLNWLQQRPGQSPRRLIYLVSKLDSGVPNRFSGSGSGTDFTLQISRVEAEDVGLYYCWQGAHFPFTFGSGTKLEIKR
notes: Humanized F12P16F6 expressed as whole antibody with human constant regions (kappa light chain)
B5: F6 cks-rep (hF6) (antibody, human IgG1, kappa, V domains shown)
VH: B4 VH
VL: B4 VL with S7T, L15P, Q42L, R50K
notes: Humanized IgG1/kappa antibody; also called hF6 (no Fynomer)
B6: F6 cka-rep (antibody, V domains shown)
VH: B4 VH
VL: B4 VL with S7T, L15P, Q42L, R50K, W94M, S105G, L109V
notes: as for B4
B7: F6 f1ka-rep (antibody, V domains shown)
VH: B4 VH with V5Q, L81M, E82D
VL: B4 VL with S7T, L15P, Q42L, R50K, W94M, S105G, L109V
notes: as for B4
B8: F6 akf-rep (antibody, V domains shown)
VH: B4 VH with I60Y, N61A, L65Q, S66G
VL: B4 VL
notes: as for B4
B9: F6 f1ks-rep (antibody, V domains shown)
VH: B4 VH with V5Q, L81M, E82D
VL: B4 VL with S7T, L15P, Q42L, R50K
notes: as for B4
B10: F6 aks-rep (antibody, V domains shown)
VH: B4 VH with I60Y, N61A, L65Q, S66G
VL: B4 VL with S7T, L15P, Q42L, R50K
notes: as for B4
B11: F6 f2kf-rep (antibody, V domains shown)
VH: B4 VH with V5Q, L70I, T74E, A79V, L81M, E82Q, T91S
VL: B4 VL
notes: as for B4
B12: F6 f1kf-rep (antibody, V domains shown)
VH: B4 VH with V5Q, L81M, E82D
VL: B4 VL
notes: as for B4
B13: hF6-HC-G7 (bispecific antibody, human IgG1, kappa)
heavy: not shown
light: DVVMTQTPLSLSVTPGQPASISCKSSQSLLASDGKTYLNWLLQRPGQSPKRLIYLVSKLDSGVPNRFSGSGSGTDFTLQISRVEAEDVGLYYCWQGAHFPFTFGSGTKLEIKRTVAAPSVFIFPPSDEQLKSGTASVVCLLNNFYPREAKVQWKVDNALQSGNSQESVTEQDSKDSTYSLSSTLTLSKADYEKHKVYACEVTHQGLSSPVTKSFNRGEC
notes: IgG1/kappa

biological target: T1, Human CD138 His; test: SPR (BioRad Proteon), CD138 His immobilized, bivalent analyte fit
Procedure: (§1) Murine IgGs were purified from the hybridoma supernatants and the IgGs were subject to SPR (surface plasmon resonance) for kinetic binding measurements. Human or mouse CD138 His was immobilized on a GLM chip at […] on a BioRad Proteon. […] KDs were measured using bivalent analyte fit.

Row | Binder | Kd | koff [s⁻¹] | kon [M⁻¹ s⁻¹]
1 | B1 | 5.32 nM and 5.3 nM | 0.00127 | 238000
2 | B2 | 91.6 nM | 0.0117 | 128000
3 | B3 | 8.66 nM and 8.6 nM | 0.033 | 3.81e+06

biological target: T2, Human syndecan-1 (CD138) on the cell …; test: summary table; repeats the EC50 (nM) of Table 20, unit not given
Procedure: (§2) Analysis of cell-surface binding to human CD138 was performed on 9 representative humanized anti-CD138 antibodies by FACS (FIG. 7). […] Two cell lines expressing moderate levels of CD138 were used to test binding; multiple myeloma cell line KMS-11 and bladder cancer line RT112/84. […] EC50s were calculated using four parameter fit curves (Table 20). The constructs were also tested against ARH-77 cells, which are CD138 negative lymphoblasts.

Row | Binder | FACS binding (KMS11)
4 | B4 | 1.64
5 | B5 | 1.2
6 | B6 | 1.3
7 | B7 | 0.83
8 | B8 | 1.09
9 | B9 | 0.97
10 | B10 | 1.36
11 | B11 | 1.81
12 | B12 | 0.94

biological target: T3, Mouse CD138 His; test: SPR, mouse CD138 His immobilized
Procedure: as §1

Row | Binder | binding result
13 | B2 | no binding (tested: 167 nM)
14 | B3 | no binding (tested: 167 nM)

Biological target: T4, hCD138 peptide AGEGPKEGEAVVLP
Test: ELISA, plate-coated hCD138 peptide
Procedure: (§3) A CD138 binding ELISA was performed with 9 representative humanized antibodies to determine binding to portion of the linear CD138 peptide used for immunization (FIG. 7). […] Coated plates were incubated with various dilutions of each of the 9 representative antibodies overnight and binding was detected with a goat anti-human IgG (H+L)-HRP. EC50s were determined using four parameter fit curves (Table 21). An ELISA was also performed to detect binding to plate-coated human CD138-Fc protein (Table 21).

Row | Binder | EC50 [nM]
15 | B4 | 0.981
16 | B5 | 0.33
17 | B6 | 1.65
18 | B7 | 0.744
19 | B8 | 1.54
20 | B9 | 1.31
21 | B10 | 1.28
22 | B11 | 0.726
23 | B12 | 0.413

biological target: T2, Human syndecan-1 (CD138) on the cell …; test: FACS on KMS-11 cells, four parameter fit
Procedure: as §2

Row | Binder | EC50 [nM]
24 | B4 | 1.64
25 | B5 | 1.2
26 | B6 | 1.3
27 | B7 | 0.83
28 | B8 | 1.09
29 | B9 | 0.97
30 | B10 | 1.36
31 | B11 | 1.81
32 | B12 | 0.94

biological target: T2, Human syndecan-1 (CD138) on the cell …; test: FACS on RT-112 cells, four parameter fit
Procedure: as §2

Row | Binder | EC50 [nM]
33 | B4 | 2.09
34 | B5 | 2.2
35 | B6 | 2.44
36 | B7 | 1.39
37 | B8 | 1.88
38 | B9 | 2.73
39 | B10 | 2.13
40 | B11 | 2.46
41 | B12 | 1.93

biological target: T5, hCD138 (ELISA of Table 29); test: hCD138 ELISA

Row | Binder | EC50 [nM]
42 | B13 | 0.55
43 | B5 | 0.56

biological target: T1, Human CD138 His; test: SPR, summary table
Procedure: as §1

Row | Binder | Kd [nM]
44 | B1 | 5
45 | B2 | 92
46 | B3 | 9

biological target: T6, Human CD138-Fc protein; test: ELISA, plate-coated human CD138-Fc
Procedure: as §3

Row | Binder | EC50 [nM]
47 | B4 | 0.535
48 | B5 | 0.197
49 | B6 | 0.855
50 | B7 | 0.433
51 | B8 | 0.879
52 | B9 | 0.762
53 | B10 | 0.969
54 | B11 | 0.405
55 | B12 | 0.225

biological target: T7, Mouse CD138 (ELISA binding assay, data …); test: ELISA binding assay

Row | Binder | binding result
56 | B1 | no binding

biological target: T6, Human CD138-Fc protein; test: summary table; repeats the EC50 (nM) of Table 21, unit not given
Procedure: as §3

Row | Binder | ELISA CD138 Fc binding
57 | B4 | 0.535
58 | B5 | 0.197
59 | B6 | 0.855
60 | B7 | 0.433
61 | B8 | 0.879
62 | B9 | 0.762
63 | B10 | 0.969
64 | B11 | 0.405
65 | B12 | 0.225
